Results as given in publication PMC6379675, “Structural insights into chromosome attachment to the nuclear envelope by an inner nuclear membrane protein Bqt4 in fission yeast” (Nucleic Acids Research, 2018).
Each block holds one binder with its values, some of them ahead of it.

How the values were obtained:
[1] = target: T1, Bqt4_(2–140), N-terminal domain of Bqt4 (S. pombe, UniProt O60158 2-140); test: pull-down; 30 μg GST-tagged Rap1 and 20 μg purified Bqt4 on glutathione-Sepharose 4B beads, 25 mM Tris pH 8.0, 100 mM NaCl, 10% glycerol, 4°C, 40 min; SDS-PAGE; conditions: both partners purified
T1 construct: Bqt4, S. pombe inner nuclear membrane protein, residues 2-140; also called Bqt4NTD; Bqt4NTD^WT; source: E. coli BL21(DE3), purified (Ni-NTA, on-beads Ulp1 digestion, Superdex200); not shown: His6, N-terminal, cleaved; SUMO, N-terminal, cleaved
T1 sequence (looked up): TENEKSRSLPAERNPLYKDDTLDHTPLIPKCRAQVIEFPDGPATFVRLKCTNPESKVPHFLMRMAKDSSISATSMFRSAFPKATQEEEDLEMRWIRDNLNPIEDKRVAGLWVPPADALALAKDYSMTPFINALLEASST

Bqt4_(2–180) = target: T2, Bqt4_(2–180) (S. pombe, UniProt O60158 2-180); test: as above; conditions: both partners purified
T2 construct: Bqt4, S. pombe, residues 2-180; also called N-terminal region of Bqt4; source: E. coli BL21(DE3), purified (Ni-NTA, on-beads Ulp1 digestion, Superdex200); not shown: His6, N-terminal, cleaved; SUMO, N-terminal, cleaved
T2 sequence (looked up): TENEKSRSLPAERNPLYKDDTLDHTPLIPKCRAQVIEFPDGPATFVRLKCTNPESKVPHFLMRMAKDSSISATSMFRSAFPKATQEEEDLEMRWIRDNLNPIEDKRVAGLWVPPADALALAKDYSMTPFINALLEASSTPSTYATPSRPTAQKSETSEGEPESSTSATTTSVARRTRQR

Bqt4NTD R33A, O60158 = target: T3, Bqt4NTD R33A, O60158; test: ITC; conditions: chain shown with the change;; parent: 11.4 ± 1.2
T3 chain: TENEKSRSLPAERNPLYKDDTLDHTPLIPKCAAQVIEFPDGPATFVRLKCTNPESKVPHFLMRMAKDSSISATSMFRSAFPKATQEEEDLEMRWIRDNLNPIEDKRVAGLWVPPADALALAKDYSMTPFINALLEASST

[2] = target: T4, Bqt4_(2–140), N-terminal domain of Bqt4 (S. pombe, UniProt O60158 2-140); test: ITC
T4 chain: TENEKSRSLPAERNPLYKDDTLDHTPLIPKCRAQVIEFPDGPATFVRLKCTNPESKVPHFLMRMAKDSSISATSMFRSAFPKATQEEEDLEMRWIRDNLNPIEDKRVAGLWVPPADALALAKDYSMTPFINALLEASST

[3] = target: T1, Bqt4_(2–140), N-terminal domain of Bqt4; test: ITC; ITC200; peptide (Rap1 479-527 at 1000–1500 μM) titrated into Bqt4 2-140 (100–150 μM), 20°C, 20 mM Tris–HCl pH 8.0, 150 mM NaCl; one binding site model; two independent experiments; conditions: both partners purified
Bqt4NTD R33A = target: T5, Bqt4NTD R33A (S. pombe, UniProt O60158 2-140, R33A); test: as above; conditions: both partners purified
T5 construct: Bqt4, S. pombe, residues 2-140; also called Bqt4 (R33A); source: E. coli BL21(DE3), purified (Ni-NTA, on-beads Ulp1 digestion, Superdex200); not shown: His6, N-terminal, cleaved; SUMO, N-terminal, cleaved
T5 sequence (looked up): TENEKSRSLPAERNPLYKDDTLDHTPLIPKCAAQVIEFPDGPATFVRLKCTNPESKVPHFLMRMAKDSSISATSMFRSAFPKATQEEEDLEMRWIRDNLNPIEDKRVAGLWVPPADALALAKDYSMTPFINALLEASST

Bqt4NTD D90R, O60158 = target: T6, Bqt4NTD D90R, O60158; test: ITC; conditions: chain shown with the change;; parent: 11.4 ± 1.2
T6 chain: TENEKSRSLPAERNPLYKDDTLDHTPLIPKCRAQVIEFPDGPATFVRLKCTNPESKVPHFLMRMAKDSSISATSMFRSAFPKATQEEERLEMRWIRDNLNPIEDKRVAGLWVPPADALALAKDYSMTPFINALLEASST

Bqt4NTD D90R = target: T7, Bqt4NTD D90R (S. pombe, UniProt O60158 2-140, D90 into arginine); test: ITC; ITC200; peptide (Rap1 479-527 at 1000–1500 μM) titrated into Bqt4 2-140 (100–150 μM), 20°C, 20 mM Tris–HCl pH 8.0, 150 mM NaCl; one binding site model; two independent experiments; conditions: both partners purified
T7 construct: Bqt4, S. pombe, residues 2-140; also called Bqt4^D90 substituted into arginine; source: E. coli BL21(DE3), purified (Ni-NTA, on-beads Ulp1 digestion, Superdex200); not shown: His6, N-terminal, cleaved; SUMO, N-terminal, cleaved
T7 sequence (looked up): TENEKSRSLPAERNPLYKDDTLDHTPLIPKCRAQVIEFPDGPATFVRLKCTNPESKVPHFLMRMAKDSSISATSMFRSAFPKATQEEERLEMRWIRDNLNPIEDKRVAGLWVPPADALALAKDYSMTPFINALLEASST

[4] = target: T8, SUMO_(21–92)-Bqt4_(8–140) fusion protein (S. pombe, UniProt O60158 8-140); test: crystal structure; Bqt4 construct and peptide mixed at a molar ratio of 1:1.5; molecular replacement; conditions: both partners purified
T8 construct: Bqt4, S. pombe, residues 8-140; crystallisation fusion; also called SUMO-Bqt4NTD; Sumo-fused Bqt4_(8–140); not shown: SUMO (residues 21-92), N-terminal, kept
T8 sequence (looked up): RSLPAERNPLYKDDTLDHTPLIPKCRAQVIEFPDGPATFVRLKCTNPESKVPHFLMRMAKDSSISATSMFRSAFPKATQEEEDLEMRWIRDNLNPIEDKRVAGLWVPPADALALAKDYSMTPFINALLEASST

B1: GST-tagged Rap1_(490–513) (peptide, UniProt Q96TL7 490-513, looked up)
chain: ENISEKSSDDEEAFEKQVTSSYSS
notes: also called GST-Rap1BBM; source: E. coli BL21(DE3); not shown: GST, N-terminal, kept
binding result [1]: binds
binding result (Bqt4_(2–180)): binds

B2: Rap1_(479–527) S497E (domain or fragment, S. pombe, UniProt Q96TL7 479-527, looked up)
chain: EIPLLSDYSDSENISEKSEDDEEAFEKQVTSSYSSPIKVKSQGKSSKGS
notes: phosphomimetic; also called Rap1^S497E; source: E. coli BL21(DE3), purified (glutathione-Sepharose 4B, on-beads 3C digestion, Superdex75); not shown: GST, N-terminal, cleaved
Kd (Bqt4NTD R33A, O60158): 24.1 µM
Kd [2]: 2.6 µM
binding result [3]: binds
binding result (Bqt4NTD R33A): binds

Other lines, results leading:

Kd (Bqt4NTD D90R, O60158): 21.2 µM
Kd [2]: 57.8 µM
fold decrease in binding affinity against wild-type Rap1 [3]: 5 fold
binding result (Bqt4NTD D90R): binds
B3: Rap1_(479–527) S513E (domain or fragment, S. pombe, UniProt Q96TL7 479-527, looked up)
chain: EIPLLSDYSDSENISEKSSDDEEAFEKQVTSSYSEPIKVKSQGKSSKGS
notes: phosphomimetic; also called Rap1^S513E; source: E. coli BL21(DE3), purified (glutathione-Sepharose 4B, on-beads 3C digestion, Superdex75); not shown: GST, N-terminal, cleaved

binding result [4]: binds
B4: Rap1_(498–512) (peptide)
peptide: GPLDDEEAFEKQVTSSYS
notes: three extra residues left at the N-terminus after removal of GST by 3C protease; also called Rap1BBM (in the crystal); source: E. coli BL21(DE3), purified (glutathione-Sepharose 4B, on-beads 3C digestion, Superdex75); not shown: GST, N-terminal, cleaved
